Laboratory results: patent US7662919

Molecular target: Flt1/VEGFR1 (human) (UniProt P17948)
Assay: cell-based or functional assay

Chain of UniProt P17948 (P17948 27-1338): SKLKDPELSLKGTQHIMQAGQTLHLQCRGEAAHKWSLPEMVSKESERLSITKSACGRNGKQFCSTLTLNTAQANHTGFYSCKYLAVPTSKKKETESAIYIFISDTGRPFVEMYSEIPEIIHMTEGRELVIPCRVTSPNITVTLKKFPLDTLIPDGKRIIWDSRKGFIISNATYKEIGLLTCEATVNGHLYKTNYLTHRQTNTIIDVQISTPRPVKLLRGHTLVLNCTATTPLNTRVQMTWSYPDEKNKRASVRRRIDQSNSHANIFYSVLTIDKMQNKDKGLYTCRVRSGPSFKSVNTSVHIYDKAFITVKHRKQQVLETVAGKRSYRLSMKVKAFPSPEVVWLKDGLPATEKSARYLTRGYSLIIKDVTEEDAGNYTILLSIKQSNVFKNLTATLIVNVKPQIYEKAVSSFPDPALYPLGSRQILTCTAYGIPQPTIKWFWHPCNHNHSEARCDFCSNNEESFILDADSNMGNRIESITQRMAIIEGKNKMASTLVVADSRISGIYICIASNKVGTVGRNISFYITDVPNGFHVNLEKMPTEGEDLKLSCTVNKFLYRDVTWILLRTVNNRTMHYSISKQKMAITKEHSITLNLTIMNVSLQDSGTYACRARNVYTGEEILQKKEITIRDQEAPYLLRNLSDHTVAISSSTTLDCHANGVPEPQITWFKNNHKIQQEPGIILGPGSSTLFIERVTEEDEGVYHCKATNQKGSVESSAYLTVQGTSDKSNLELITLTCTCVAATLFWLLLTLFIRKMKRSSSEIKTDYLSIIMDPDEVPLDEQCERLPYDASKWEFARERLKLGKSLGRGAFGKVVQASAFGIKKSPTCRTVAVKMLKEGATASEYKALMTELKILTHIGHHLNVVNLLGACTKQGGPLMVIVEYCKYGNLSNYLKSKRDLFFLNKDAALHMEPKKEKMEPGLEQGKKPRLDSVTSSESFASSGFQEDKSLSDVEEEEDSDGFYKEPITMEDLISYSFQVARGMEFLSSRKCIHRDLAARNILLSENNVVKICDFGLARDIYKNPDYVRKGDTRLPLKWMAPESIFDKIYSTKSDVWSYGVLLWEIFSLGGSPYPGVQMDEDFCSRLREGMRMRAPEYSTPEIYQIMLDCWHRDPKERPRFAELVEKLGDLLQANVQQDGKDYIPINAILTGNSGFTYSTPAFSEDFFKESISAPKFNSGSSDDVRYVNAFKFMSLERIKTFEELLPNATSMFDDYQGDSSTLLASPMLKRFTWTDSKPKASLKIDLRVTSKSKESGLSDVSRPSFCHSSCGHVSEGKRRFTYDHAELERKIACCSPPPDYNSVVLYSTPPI

HUVEC buds containing multiple filopodia: 250%
Substance: PlGF (ligand)
